Residue numbers refer to the chain shown, from its start. Names and notes keep the numbering of the source.
What was measured:
[1] = target: Fc protein chain B with D356C + T366S + L368A + Y407V + F405K; experiment: non-reducing SDS-PAGE of Protein A-purified co-transfection product; chain A:chain B vectors 4:1
[2] = target: T1, VhH-Fc fusion protein chain B with D356C + T366S + L368A + Y407V + F405K; experiment: non-reducing SDS-PAGE densitometry of Protein A-purified co-transfection product; chain A:chain B vectors 4:1
[3] = target: T1, VhH-Fc fusion protein chain B with …; experiment: non-reducing SDS-PAGE densitometry of Protein A-purified co-transfection product; chain A:chain B vectors 1:4
[4] = target: Fc protein chain B with D356C + T366S + L368A + Y407V + F405K; experiment: non-reducing SDS-PAGE of Protein A-purified co-transfection product; chain A:chain B vectors 1:4
[5] = target: T2, VhH-Fc fusion protein chain B with T366S + L368A + Y407V + D399S + F405K; experiment: non-reducing SDS-PAGE densitometry of Protein A-purified co-transfection product; chain A:chain B vectors 1:1
[6] = target: T2, VhH-Fc fusion protein chain B with …; experiment: non-reducing SDS-PAGE densitometry of Protein A-purified co-transfection product; chain A:chain B vectors 4:1
[7] = target: T2, VhH-Fc fusion protein chain B with …; experiment: non-reducing SDS-PAGE densitometry of Protein A-purified co-transfection product; chain A:chain B vectors 1:4
[8] = target: T3, VhH-Fc fusion protein chain B with T366S + L368G + Y407A + F405K; experiment: non-reducing SDS-PAGE densitometry of Protein A-purified co-transfection product; chain A:chain B vectors 4:1
[9] = target: T3, VhH-Fc fusion protein chain B with …; experiment: non-reducing SDS-PAGE densitometry of Protein A-purified co-transfection product; chain A:chain B vectors 1:4

B1: ScFv-Fc fusion protein chain A with Y349C + T366W + K409A (protein)
chain: EVQLLESGGGVVQPGRSLRLSCIASGFTFSSYPMTWVRQAPGKGLEWVASISYDGSYKYKADSMKGRLTISRDNSKNTLYLEMNSLTAEDTAVYYCARTAFFNAYDFWGQGTLVTVSSASTKGPSVGGGGSGGGGSEIVMTQSPATLSVSPGERATLSCRASQSVRSNLAWYQQKPGQAPRLLIYAASTRATGIPARFSGSGSGTEFTLTISSLQSEDFAVYYCQQYNEWFRTSGQGTKVEIKRDKTHTCPPCPAPELLGGPSVFLFPPKPKDTLMISRTPEVTCVVVDVSHENPEVKFNWYVDGVEVHNAKTKPREEQYNSTYRVVSVLTVLHQDWLNGKEYKCKVSNKALPAPIEKTISKAKGQPREPQVCTLPPSRDELTKNQVSLWCLVKGFYPSDIAVEWESNGQPENNYKTTPPVLDSDGSFFLYSALTVDKSRWQQGNVFSCSVMHEALHNHYTQKSLSLSPGK
**Q.** For B1, which ScFv-Fc/Fc heterodimer (%) [1] is on record?
**A.** 53%

**Q.** And the ScFv-Fc/VhH-Fc heterodimer (%) [2]?
**A.** 54%

**Q.** What about the ScFv-Fc/VhH-Fc heterodimer (%) [3] of the same protein?
**A.** 47%

**Q.** And the ScFv-Fc/Fc heterodimer (%) [4]?
**A.** 66%

B2: ScFv-Fc fusion protein chain A with T366W + K409A + K392D (protein)
chain: B1 chain with C373Y, K416D
**Q.** How did the ScFv-Fc/VhH-Fc heterodimer (%) [5] turn out when B2 was run?
**A.** 80%

**Q.** What about the ScFv-Fc/VhH-Fc heterodimer (%) [6] of the same protein?
**A.** 61%

**Q.** What about the ScFv-Fc/VhH-Fc heterodimer (%) [7] of the same protein?
**A.** 73%

B3: ScFv-Fc fusion protein chain A with T366W + K409A (protein)
chain: B1 chain with C373Y
**Q.** What does the source list for B3?
**A.** ScFv-Fc/VhH-Fc heterodimer (%) [8]: 52%; ScFv-Fc/VhH-Fc heterodimer (%) [9]: 89%

Source: patent US20180362668
